Data set [1] deals with T1, efl-2 (Y48C3A.17) (Caenorhabditis elegans) (UniProt A5HWA8).
T1 sequence: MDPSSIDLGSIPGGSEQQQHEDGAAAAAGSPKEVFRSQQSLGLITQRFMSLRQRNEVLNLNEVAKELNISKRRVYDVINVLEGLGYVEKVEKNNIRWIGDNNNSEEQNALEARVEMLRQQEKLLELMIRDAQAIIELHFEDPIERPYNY

The target of data set [2] is T2, fkh-9 (K03C7.2) (Caenorhabditis elegans) (UniProt Q21187).
T2 sequence: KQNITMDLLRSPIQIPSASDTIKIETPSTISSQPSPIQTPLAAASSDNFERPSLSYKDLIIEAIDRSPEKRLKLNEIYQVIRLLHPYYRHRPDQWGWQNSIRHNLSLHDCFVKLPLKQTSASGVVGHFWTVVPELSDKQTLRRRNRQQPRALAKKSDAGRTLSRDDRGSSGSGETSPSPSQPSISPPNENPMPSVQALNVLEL

Data set [3] addresses T3, end-3 (F58E10.5) (Caenorhabditis elegans) (UniProt Q9XUW7).
T3 sequence: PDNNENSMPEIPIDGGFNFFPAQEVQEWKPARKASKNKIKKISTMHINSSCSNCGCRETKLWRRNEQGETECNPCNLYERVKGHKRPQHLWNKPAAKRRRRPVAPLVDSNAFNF

The target of data set [4] is T4, T22H9.4 (T22H9.4) (Caenorhabditis elegans) (UniProt Q9TXN8).
T4 sequence: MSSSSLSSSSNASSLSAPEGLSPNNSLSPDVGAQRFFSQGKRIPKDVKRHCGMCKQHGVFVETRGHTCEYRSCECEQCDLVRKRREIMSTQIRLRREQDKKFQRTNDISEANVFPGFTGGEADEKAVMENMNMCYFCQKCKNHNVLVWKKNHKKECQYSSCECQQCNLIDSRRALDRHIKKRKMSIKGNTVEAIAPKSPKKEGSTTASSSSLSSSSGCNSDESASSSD

The target in data set [5] is T5, mab-3 (Y53C12B.5) (Caenorhabditis elegans) (UniProt O18214).
T5 sequence: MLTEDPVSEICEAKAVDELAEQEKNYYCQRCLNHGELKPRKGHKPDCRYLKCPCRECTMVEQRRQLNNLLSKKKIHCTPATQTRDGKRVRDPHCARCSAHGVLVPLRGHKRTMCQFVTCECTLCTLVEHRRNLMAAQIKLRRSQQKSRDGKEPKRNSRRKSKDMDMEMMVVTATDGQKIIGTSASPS

Data set [6] deals with T6, C34D1.1 (C34D1.1) (Caenorhabditis elegans).
T6 sequence: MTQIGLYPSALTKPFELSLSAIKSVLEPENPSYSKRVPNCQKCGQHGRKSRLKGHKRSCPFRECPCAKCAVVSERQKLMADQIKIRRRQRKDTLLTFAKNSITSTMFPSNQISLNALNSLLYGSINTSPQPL

The target in data set [7] is T7, atf-6 (F45E6.2) (Caenorhabditis elegans) (UniProt Q20435).
T7 sequence: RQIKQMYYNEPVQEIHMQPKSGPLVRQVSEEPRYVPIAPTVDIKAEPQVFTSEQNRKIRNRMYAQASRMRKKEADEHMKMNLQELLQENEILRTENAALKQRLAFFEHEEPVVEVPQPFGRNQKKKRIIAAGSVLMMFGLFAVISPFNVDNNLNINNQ

Data set [8] deals with T8, end-1 (F58E10.2) (Caenorhabditis elegans) (UniProt G5EDN4).
T8 sequence: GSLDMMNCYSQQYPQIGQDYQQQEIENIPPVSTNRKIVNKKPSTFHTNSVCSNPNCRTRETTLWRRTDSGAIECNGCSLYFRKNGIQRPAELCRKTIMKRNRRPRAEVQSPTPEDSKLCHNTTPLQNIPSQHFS

The target in data set [9] is T9, elt-6 (F52C12.5) (Caenorhabditis elegans) (UniProt G5EGN3).
T9 sequence: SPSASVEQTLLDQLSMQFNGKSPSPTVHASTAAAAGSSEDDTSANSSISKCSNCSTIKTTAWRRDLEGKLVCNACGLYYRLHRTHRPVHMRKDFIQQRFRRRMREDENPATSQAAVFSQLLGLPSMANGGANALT

As for “AGGCGCGC (double strand) [8-mer AGGCGCGC]”, the binding signal (PBM E-score (-0.5 to 0.5)) in data set [1] came out at 0.487.

In [2], “TCATAACA (double strand) [8-mer TCATAACA]” gave a binding signal (PBM E-score (-0.5 to 0.5)) of 0.485.

Turning to “CTTATCTA (double strand) [8-mer CTTATCTA]”, in data set [3], the binding signal (PBM E-score (-0.5 to 0.5)) turned out to be 0.493.

Regarding “TGTTGCAA (double strand) [8-mer TGTTGCAA]”, the binding signal (PBM E-score (-0.5 to 0.5)) in [4] amounted to 0.499; in data set [5], 0.497; in [6] it was 0.469.

Regarding “CACGTCAG (double strand) [8-mer CACGTCAG]”, in [7], the binding signal (PBM E-score (-0.5 to 0.5)) was 0.473.

As to “CAATAACA (double strand) [8-mer CAATAACA]”, in data set [2], the binding signal (PBM E-score (-0.5 to 0.5)) was 0.488.

For the sequence “GATATCGC (double strand) [8-mer GATATCGC]”, the binding signal (PBM E-score (-0.5 to 0.5)) in data set [8] was 0.487.

With “AACAACAA (double strand) [8-mer AACAACAA]”, in data set [2], the binding signal (PBM E-score (-0.5 to 0.5)) was determined as 0.487.

Take “CGATAACG (double strand) [8-mer CGATAACG]”: the binding signal (PBM E-score (-0.5 to 0.5)) in [8] stood at 0.483.

Regarding “GCGCGCCA (double strand) [8-mer GCGCGCCA]”, the binding signal (PBM E-score (-0.5 to 0.5)) in data set [1] came to 0.49.

As for “AAAAACAA (double strand) [8-mer AAAAACAA]”, in [2], the binding signal (PBM E-score (-0.5 to 0.5)) was 0.49.

Consider “AGATAAGG (double strand) [8-mer AGATAAGG]”, for which the binding signal (PBM E-score (-0.5 to 0.5)) in data set [8] stood at 0.484; in data set [3] it was 0.496.

“AGAGATAA (double strand) [8-mer AGAGATAA]” had a binding signal (PBM E-score (-0.5 to 0.5)) in data set [3] of 0.492.

With “AGATAAGA (double strand) [8-mer AGATAAGA]”, the binding signal (PBM E-score (-0.5 to 0.5)) in data set [8] was determined as 0.484; in data set [3], 0.496.

Turning to “AGCGCGCC (double strand) [8-mer AGCGCGCC]”, the binding signal (PBM E-score (-0.5 to 0.5)) in data set [1] is 0.488.

The sequence “CGCGCGCA (double strand) [8-mer CGCGCGCA]” registered a binding signal (PBM E-score (-0.5 to 0.5)) in data set [1] of 0.491.

Take “ACCACGTA (double strand) [8-mer ACCACGTA]”: the binding signal (PBM E-score (-0.5 to 0.5)) in [7] was 0.457.

Sequence “TCAAAACA (double strand) [8-mer TCAAAACA]” had a binding signal (PBM E-score (-0.5 to 0.5)) in data set [2] of 0.491.

Regarding “GAAAACAA (double strand) [8-mer GAAAACAA]”, the binding signal (PBM E-score (-0.5 to 0.5)) in [2] worked out at 0.489.

With “GTGATAAA (double strand) [8-mer GTGATAAA]”, the binding signal (PBM E-score (-0.5 to 0.5)) in [9] worked out at 0.491.

In data set [1], “ACGCGCGC (double strand) [8-mer ACGCGCGC]” displayed a binding signal (PBM E-score (-0.5 to 0.5)) of 0.49.

“ATGCGCGC (double strand) [8-mer ATGCGCGC]” registered a binding signal (PBM E-score (-0.5 to 0.5)) in data set [1] of 0.485.

As to “CAAAACAA (double strand) [8-mer CAAAACAA]”, the binding signal (PBM E-score (-0.5 to 0.5)) in [2] amounted to 0.494.

In [2], “AAAACAAC (double strand) [8-mer AAAACAAC]” had a binding signal (PBM E-score (-0.5 to 0.5)) of 0.491.

In data set [1], “CGCGCGCC (double strand) [8-mer CGCGCGCC]” had a binding signal (PBM E-score (-0.5 to 0.5)) of 0.488.

In turn, “CGATATCG (double strand) [8-mer CGATATCG]” yielded a binding signal (PBM E-score (-0.5 to 0.5)) in data set [8] of 0.496.

“AGTGATAA (double strand) [8-mer AGTGATAA]” returned a binding signal (PBM E-score (-0.5 to 0.5)) in [9] of 0.495.

Turning to “ACCCGCGC (double strand) [8-mer ACCCGCGC]”, the binding signal (PBM E-score (-0.5 to 0.5)) in data set [1] stood at 0.486.

In the case of “GCGCGCAC (double strand) [8-mer GCGCGCAC]”, in data set [1], the binding signal (PBM E-score (-0.5 to 0.5)) was determined as 0.487.

Turning to “GAGATAAC (double strand) [8-mer GAGATAAC]”, the binding signal (PBM E-score (-0.5 to 0.5)) in data set [3] came out at 0.487.

“CATAACAA (double strand) [8-mer CATAACAA]”: the binding signal (PBM E-score (-0.5 to 0.5)) in data set [2] was determined as 0.486.

In data set [2], “TAAAAACA (double strand) [8-mer TAAAAACA]” returned a binding signal (PBM E-score (-0.5 to 0.5)) of 0.485.

In turn, “AGATAACG (double strand) [8-mer AGATAACG]” gave a binding signal (PBM E-score (-0.5 to 0.5)) in [3] of 0.49.

As to “ATCTAATC (double strand) [8-mer ATCTAATC]”, the binding signal (PBM E-score (-0.5 to 0.5)) in [8] amounted to 0.487.

On to “TCTTATCA (double strand) [8-mer TCTTATCA]”, for which the values for the binding signal (PBM E-score (-0.5 to 0.5)) in data set [9] and in [3] were 0.495 and 0.491, respectively.

On to “ACGTGGCC (double strand) [8-mer ACGTGGCC]”, for which the binding signal (PBM E-score (-0.5 to 0.5)) in [7] is 0.471.

In [8], “CCGATAAG (double strand) [8-mer CCGATAAG]” yielded a binding signal (PBM E-score (-0.5 to 0.5)) of 0.486.

As to “ATCTTATC (double strand) [8-mer ATCTTATC]”, the binding signal (PBM E-score (-0.5 to 0.5)) in data set [8] worked out at 0.495; in data set [3] it was 0.497.

Take “CTTATCAC (double strand) [8-mer CTTATCAC]”: the binding signal (PBM E-score (-0.5 to 0.5)) in [9] was 0.496.

“CCACGTAG (double strand) [8-mer CCACGTAG]” came in with a binding signal (PBM E-score (-0.5 to 0.5)) in data set [7] of 0.478.

Regarding “CAGATAAG (double strand) [8-mer CAGATAAG]”, the binding signal (PBM E-score (-0.5 to 0.5)) in [3] was found to be 0.491.

“GCTTATCA (double strand) [8-mer GCTTATCA]”: in [9], the binding signal (PBM E-score (-0.5 to 0.5)) is 0.493.

As to “AAGATAAG (double strand) [8-mer AAGATAAG]”, in data set [3], the binding signal (PBM E-score (-0.5 to 0.5)) was 0.493.

Regarding “GCGCGCGA (double strand) [8-mer GCGCGCGA]”, the binding signal (PBM E-score (-0.5 to 0.5)) in data set [1] came to 0.485.

Sequence “CCTTATCG (double strand) [8-mer CCTTATCG]” gave a binding signal (PBM E-score (-0.5 to 0.5)) in data set [8] of 0.486.

With “TATCGATA (double strand) [8-mer TATCGATA]”, the binding signal (PBM E-score (-0.5 to 0.5)) in data set [8] is 0.49.

“GTGATAAC (double strand) [8-mer GTGATAAC]” displayed a binding signal (PBM E-score (-0.5 to 0.5)) in data set [9] of 0.492.

“CTTATCTC (double strand) [8-mer CTTATCTC]” returned a binding signal (PBM E-score (-0.5 to 0.5)) in data set [3] of 0.496.

For “AGATAACA (double strand) [8-mer AGATAACA]”, in data set [3], the binding signal (PBM E-score (-0.5 to 0.5)) turned out to be 0.488.

In [3], “AGATAAGC (double strand) [8-mer AGATAAGC]” displayed a binding signal (PBM E-score (-0.5 to 0.5)) of 0.493.

In data set [2], “AATAACAA (double strand) [8-mer AATAACAA]” had a binding signal (PBM E-score (-0.5 to 0.5)) of 0.494.

In data set [3], “GGAGATAA (double strand) [8-mer GGAGATAA]” displayed a binding signal (PBM E-score (-0.5 to 0.5)) of 0.49.

Take “CGATAAGA (double strand) [8-mer CGATAAGA]”: the binding signal (PBM E-score (-0.5 to 0.5)) in [8] came to 0.487.

As for “GATATCGA (double strand) [8-mer GATATCGA]”, in [8], the binding signal (PBM E-score (-0.5 to 0.5)) was determined as 0.484.

“CCGATATC (double strand) [8-mer CCGATATC]”: the binding signal (PBM E-score (-0.5 to 0.5)) in data set [8] worked out at 0.487.

Consider “GGTGATAA (double strand) [8-mer GGTGATAA]”, for which, in data set [9], the binding signal (PBM E-score (-0.5 to 0.5)) was determined as 0.494.

“GATAAGAA (double strand) [8-mer GATAAGAA]” came in with a binding signal (PBM E-score (-0.5 to 0.5)) in data set [3] of 0.488.

In turn, “GAGCGCGC (double strand) [8-mer GAGCGCGC]” showed a binding signal (PBM E-score (-0.5 to 0.5)) in data set [1] of 0.486.

For the sequence “ACGTCAGA (double strand) [8-mer ACGTCAGA]”, in data set [7], the binding signal (PBM E-score (-0.5 to 0.5)) was 0.476.
